From patent publication US20200040059A1
Several values for one entry are separate records, joined by “and”; a condition that tells them apart may be missing. Identical values can stand only once.

Experiments:
[1] = molecular target: human CD28, full length, on transfected HEK293 cells (human) (UniProt P10747); experiment: flow cytometry, Fc fusion at 66.6 nM on HEK293 cells transfected with CD28
[2] = molecular target: human PD-L1, full length, on transfected HEK293 cells (human) (UniProt Q9NZQ7); experiment: flow cytometry, Fc fusion at 22.2 nM on HEK293 cells transfected with PD-L1
Sequence of human PD-L1, full length, on transfected HEK293 cells (human) (Q9NZQ7 19-290 limits assumed): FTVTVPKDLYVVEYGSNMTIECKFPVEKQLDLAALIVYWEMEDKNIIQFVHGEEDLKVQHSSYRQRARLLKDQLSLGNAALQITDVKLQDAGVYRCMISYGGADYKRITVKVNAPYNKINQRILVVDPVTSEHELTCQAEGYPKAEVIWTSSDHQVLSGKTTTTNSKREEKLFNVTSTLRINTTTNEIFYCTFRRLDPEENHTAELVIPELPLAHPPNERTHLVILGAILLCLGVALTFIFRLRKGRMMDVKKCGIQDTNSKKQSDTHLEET

[3] = molecular target: CD112R (human) (UniProt Q6DKI7); experiment: flow cytometry, cells expressing target, 25 nM
Sequence of CD112R (human) (Q6DKI7 whole entry): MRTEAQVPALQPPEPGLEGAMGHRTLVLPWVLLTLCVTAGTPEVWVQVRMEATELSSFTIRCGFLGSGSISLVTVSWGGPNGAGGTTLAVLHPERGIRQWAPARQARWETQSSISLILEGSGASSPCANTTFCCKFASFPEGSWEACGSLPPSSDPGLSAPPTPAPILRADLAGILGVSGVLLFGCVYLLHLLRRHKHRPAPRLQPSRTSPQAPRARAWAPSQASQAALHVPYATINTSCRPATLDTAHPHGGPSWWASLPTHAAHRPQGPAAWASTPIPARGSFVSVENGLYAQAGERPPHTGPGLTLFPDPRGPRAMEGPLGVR

[4] = molecular target: T1, CD226 (human) (UniProt Q15762); experiment: flow cytometry, cells expressing target, 25 nM
T1 sequence: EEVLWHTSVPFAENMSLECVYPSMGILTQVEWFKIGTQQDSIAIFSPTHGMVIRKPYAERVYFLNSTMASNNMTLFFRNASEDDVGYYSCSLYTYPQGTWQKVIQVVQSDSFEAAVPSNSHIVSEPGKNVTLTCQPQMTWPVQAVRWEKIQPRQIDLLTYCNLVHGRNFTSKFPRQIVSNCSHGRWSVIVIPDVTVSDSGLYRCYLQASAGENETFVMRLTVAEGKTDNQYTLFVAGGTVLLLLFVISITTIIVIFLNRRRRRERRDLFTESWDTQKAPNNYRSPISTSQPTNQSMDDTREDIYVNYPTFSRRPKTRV

[5] = molecular target: T2, CD96 (UniProt P40200); experiment: flow cytometry, cells expressing target, 25 nM
T2 sequence (looked up): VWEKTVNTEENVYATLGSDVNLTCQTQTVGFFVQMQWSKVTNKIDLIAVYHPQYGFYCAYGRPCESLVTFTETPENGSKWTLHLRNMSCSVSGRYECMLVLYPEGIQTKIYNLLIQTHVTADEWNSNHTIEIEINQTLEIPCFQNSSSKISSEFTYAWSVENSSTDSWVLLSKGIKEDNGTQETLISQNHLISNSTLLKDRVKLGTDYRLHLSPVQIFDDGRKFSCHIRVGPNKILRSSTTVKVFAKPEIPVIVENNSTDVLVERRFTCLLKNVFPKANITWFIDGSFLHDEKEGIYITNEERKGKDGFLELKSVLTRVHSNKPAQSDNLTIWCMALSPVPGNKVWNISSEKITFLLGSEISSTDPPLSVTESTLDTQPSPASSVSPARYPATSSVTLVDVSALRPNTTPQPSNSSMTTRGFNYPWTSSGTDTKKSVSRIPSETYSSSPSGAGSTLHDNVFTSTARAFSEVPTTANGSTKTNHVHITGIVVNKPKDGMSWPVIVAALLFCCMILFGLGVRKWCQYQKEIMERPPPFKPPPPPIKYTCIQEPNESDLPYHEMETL

[6] = molecular target: PD-L1 (human) (UniProt Q9NZQ7); experiment: flow cytometry on HEK293 cells transfected with PD-L1
Sequence of PD-L1 (human) (Q9NZQ7 19-290 limits assumed): as the sequence (Q9NZQ7 19-290 limits assumed) above

Substance | MFI at 66.6 nM [1] [MFI] | MFI at 22.2 nM [2] [MFI] | MFI at 25 nM [3] | MFI at 25 nM [4] | MFI at 25 nM [5] | MFI at 22.2 nM [6] [MFI]
CD80 variant IgV-Fc E35G/K54E/A71D/L72P (from UniProt P33681 35-141) (Fc fusion) | 3700 | 1580 | – | – | – | –
CD80 variant IgV-Fc E35D (from UniProt P33681 35-141) (Fc fusion) | 3450 | 25500 | – | – | – | –
CD80 variant IgV-Fc Y31H/E35D/T41S/V68L/K93R/R94W (from UniProt P33681 35-141) (Fc fusion) | 2450 | 18900 | – | – | – | –
CD155 variant IgV-Fc V9I, P18S, S24P, H49Q, F58Y, Q60R, Q62K, L79P, F91S, T107M (from UniProt P15151 24-139) (Fc fusion) | – | – | 1030 MFI | 1090 MFI | 43900 MFI | –
CD80 variant IgV-Fc A12T/E24D/E35D/D46V/I61V/L72P/E95V (from UniProt P33681 35-141) (Fc fusion) | 7410 | 1220 | – | – | – | –
CD155 variant IgV-Fc V11A, P18T, N35S, L79P, S87T, F91S (from UniProt P15151 24-139) (Fc fusion) | – | – | 1270 MFI | 274000 MFI | 69900 MFI | –
CD155 variant IgV-Fc P18S, W46R, E68D, L79P, F91S, T107M, R113G (from UniProt P15151 24-139) (Fc fusion) | – | – | 798 MFI | 717 MFI | 737 MFI | –
CD155 variant IgV-Fc V9L, P18Y, V25A, V38G, M55V, A77T, L79P, M90I, F91S, L104M (from UniProt P15151 24-139) (Fc fusion) | – | – | 919 MFI | 26000 MFI | 18000 MFI | –
CD155 variant IgV-Fc T15I, P18S, V33M, N35F, T39S, M55L, R78S, L79P, F91S, T107M (from UniProt P15151 24-139) (Fc fusion) | – | – | 789 MFI | 1020 MFI | 2710 MFI | –
CD80 variant IgV-Fc V22L/E35G/A71D/L72P (from UniProt P33681 35-141) (Fc fusion) | 8150 | 1400 | – | – | – | –
CD80 variant IgV-Fc A71D/L72V/E95K (from UniProt P33681 35-141) (Fc fusion) | 6310 | 8420 | – | – | – | –
CD80 variant IgV-Fc D46E/A71D (from UniProt P33681 35-141) (Fc fusion) | 16800 | 22800 | – | – | – | –
CD80 variant IgV-Fc E35D/M43I/A71D (from UniProt P33681 35-141) (Fc fusion) | 6370 | 27300 | – | – | – | –
CD155 variant IgV-Fc P18S, L21M, Y30F, N35D, R84W, F91S, T107M, D116G (from UniProt P15151 24-139) (Fc fusion) | – | – | 946 MFI | 743 MFI | 1030 MFI | –
CD80 variant IgV-Fc V20I/M47V/A71D (from UniProt P33681 35-141) (Fc fusion) | 15100 | 9710 | – | – | – | –
CD80 IgV-Fc Q27H/M43I/A71D/R73S (from UniProt P33681 35-141) (Fc fusion) | – | – | – | – | – | 8240
CD80 IgV-Fc I30V/T57I/L70P/A71D/A91T (from UniProt P33681 35-141) (Fc fusion) | – | – | – | – | – | 5890
CD155 variant IgV-Fc P18S, P34S, E51V, L79P, F91S, G111R (from UniProt P15151 24-139) (Fc fusion) | – | – | 853 MFI | 769 MFI | 892 MFI | –
CD80 variant IgV-Fc E35D/A71D (IgV SEQ ID NO:622) (from UniProt P33681 35-141) (Fc fusion) | 15000 | 13800 | – | – | – | –
CD155 variant IgV-Fc P18S, S42T, E51G, L79P, F91S, G92W, T107M (from UniProt P15151 24-139) (Fc fusion) | – | – | 857 MFI and 935 MFI | 707 MFI and 851 MFI | 1050 MFI and 924 MFI | –
